The Human Domainome abundance scans (Beltran et al. 2025)

B1: Lysine-specific demethylase 2B, residues 656 to 722; numbered along this chain, Q8NHM5 (parent)
chain: LPHTAVCLVCGEAGKEDTVEEEEGKFNLMLMECSICNEIIHPGCLKIKESEGVVNDELPNCWECPKC
B2: Dystrobrevin alpha, residues 235 to 294; numbered along this chain, Q9Y4J8 (parent)
chain: ENVFHPVECSYCHSESMMGFRYRCQQCHNYQLCQDCFWRGHAGGSHSNQHQMKEYTSWKS

Variants of: B1
Experiment: abundance fitness (aPCA) (normalised: wild type 0, dead -1); higher = more abundant; growth selection in yeast, the domain comes from the species named
Details: Homo sapiens

Abundance fitness, by site and new letter:
E51: V -0.124, W -0.14, Y -0.172
G52: A 0.224, C -0.051, D -0.121, E -0.016, F -0.028, H -0.086, I -0.525, K -0.164, L -0.142, N -0.09, P 0.171, Q -0.094, R 0.067, S -0.146, T -0.122, V 0.018, W -0.365
V53: A 0.047, C -0.027, E 0.003, F -0.343, G -0.078, H -0.346, I -0.07, K -0.167, L -0.119, M -0.045, N -0.136, P -0.15, Q 0.164, R -0.148, S 0.006, T 0.078
V54: A 0.089, C -0.275, D -0.119, E 0.024, G -0.182, I 0.126, K -0.125, P -0.065, Q 0.135, R 0.042, S -0.284, T 0.126, W -0.124
N55: A -0.089, C -0.202, D -0.031, E -0.165, G -0.022, H 0.049, K -0.591, L -0.188, M -0.203, P -0.227, Q -0.189, R -0.015, S 0.087, T -0.101, V -0.236, W -0.389, Y -0.386
D56: A 0.001, C -0.233, E -0.075, F 0.023, G 0.079, H 0.692, I -0.685, K 0.179, L -0.114, M 0.123, N -0.017, P 0.099, Q -0.049, R 0.123, S 0.07, T 0.069, V -0.102, W -0.401, Y 0.063
E57: A 0.053, C 0.036, D 0.103, F -0.107, G -0.065, H 0.001, I -0.196, L -0.042, M -0.079, P -0.296, Q -0.118, R -0.055, S 0.102, T -0.007, V -0.168, W -0.305, Y -0.179
L58: A -0.454, C 0.066, E 0.011, G -0.171, H 0.194, K 0.14, P -0.408, Q -0.107, R 0.076, S 0.051, T 0.206, V -0.036, W -0.149
P59: A -0.117, C -0.076, D -0.424, E 0.249, F -0.261, G -0.076, K 0.076, M -0.183, N 0.214, Q -0.024, R 0.015, S -0.071, T -0.012, V 0.007, W -0.319
N60: C -0.368, E -0.211, F 0.153, G -0.062, H -0.127, I -0.186, K -0.176, L -0.3, M -0.234, P -0.128, Q -0.155, R -0.044, S -0.166, T -0.091, W -0.176
C61: A 0.053, D -0.475, E -0.105, F -0.325, G -0.192, H 0.309, I -0.349, K 0.005, L -0.04, M -0.12, N -0.675, P -0.054, Q -0.08, R 0.042, S 0.018, T 0.248, W -0.171, Y 0.073
W62: A -0.509, C -0.858, E -0.439, F -0.014, G -0.789, H -0.838, I -1, K -0.339, L -0.391, M -0.425, N -0.541, P -0.17, Q -0.601, R -0.574, S -0.551, T -0.426, V -0.465, Y -0.296
E63: A 0.017, C -0.073, F -0.407, G -0.252, K 0.146, L -0.074, M -0.006, N -0.246, P -0.968, Q -0.148, R -0.031, S -0.223, T 0.102, V 0.039, W -0.386, Y -0.263
C64: A -1.05, D -0.85, E -0.718, F -0.719, G -0.889, H 0.218, I -0.778, K -0.749, L -0.935, M -0.923, P -0.684, Q -0.662, R -0.888, S -0.797, T -0.952, V -0.95, W -0.775, Y -0.804
P65: A -0.133, C -0.384, D -0.547, E -0.148, F -0.401, H -0.289, I -0.899, L -0.606, Q -0.454, R -0.364, S -0.177, T -0.634, V -0.503, W -0.432
K66: A -0.425, C -0.819, D -0.064, E -0.058, G -0.263, L -0.705, M -0.434, P -0.049, Q -0.551, R -0.145, S -0.284, T -0.079, V -0.173, W -0.846
C67: A -0.676, E -0.596, G -0.992, H -0.28, K -0.667, L -1.03, P -0.867, R -1.26, T -0.462, W -1.43, Y -1.08

Variants of: B2
Experiment: as above
Details: Homo sapiens

Abundance fitness of substitutions, site by site:
E1: A -0.257, C 0.297, D 0.028, G -0.336, K -0.248, M -0.377, P -0.076, R -0.462, S -0.183, T -0.166, V -0.211, Y 0.014
N2: A 0.066, C -0.33, D -0.599, E 0.032, F -0.121, H -0.394, K -0.007, L -0.158, M 0.092, P -0.09, Q 0.019, R -0.109, T 0.049, V -0.129, W -0.285, Y -0.035
V3: A -0.075, C 0.118, D 0.011, E 0.053, F -0.248, G -0.217, I -0.006, K 0.213, L 0.096, M 0.067, N 0.149, P 0.083, Q 0.106, R 0.011, S 0.134, W -0.34, Y 0.018
F4: A -0.049, C 0.009, D 0.108, G -0.014, H -0.059, I 0.19, L -0.039, M -0.043, N 0.037, P -0.107, Q -0.152, R -0.081, S -0.14, T 0.06, V -0.01, W -0.224, Y 0.084
H5: A -0.195, C -0.024, E 0.145, F -0.201, G -0.127, I 0.321, K -0.028, L -0.125, M -0.114, N 0.259, P -0.102, Q -0.195, R -0.176, W -0.143
P6: A 0.07, C -0.137, D 0.079, E -0.045
